Consider 3 molecules from US20040005630A1 (published 2004).

Numbering of substitutions follows the chain as printed.

Assay [1] has as its target T1, rat CD5 antigen (rat equivalent of CD5) present on rat T cells (rat) (UniProt P51882).
T1 sequence (looked up): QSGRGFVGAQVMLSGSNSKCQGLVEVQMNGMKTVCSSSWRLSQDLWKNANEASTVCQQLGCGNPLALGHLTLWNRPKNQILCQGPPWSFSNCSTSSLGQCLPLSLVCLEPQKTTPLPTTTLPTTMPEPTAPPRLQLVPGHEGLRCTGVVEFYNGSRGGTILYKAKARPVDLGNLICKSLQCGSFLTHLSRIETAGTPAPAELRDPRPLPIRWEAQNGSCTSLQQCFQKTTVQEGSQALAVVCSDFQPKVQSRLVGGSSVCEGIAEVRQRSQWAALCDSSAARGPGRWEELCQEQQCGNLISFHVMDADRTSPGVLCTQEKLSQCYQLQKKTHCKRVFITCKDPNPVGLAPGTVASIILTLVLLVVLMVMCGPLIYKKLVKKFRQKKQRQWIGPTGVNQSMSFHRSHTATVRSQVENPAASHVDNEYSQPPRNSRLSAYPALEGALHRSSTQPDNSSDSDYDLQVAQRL
Briefly: flow cytometry of rat spleen cells 3 h after 0.5 mg/kg i.v., PE anti-mouse IgG1 detection. In general terms: In flow cytometry, cells or beads pass a laser one at a time.

The target in assay [2] is T1, rat CD5 antigen (rat equivalent of CD5) present on rat T cells (rat). Briefly: flow cytometry of rat lymph node cells 3 h after 0.5 mg/kg i.v., PE anti-mouse IgG1 detection.
Assay [3] has the same target. Briefly: flow cytometry of rat blood cells 3 h after 0.5 mg/kg i.v., PE anti-mouse IgG1 detection.
The target is the same in assay [4]. Briefly: flow cytometry of rat spleen cells 3 h after 0.5 mg/kg i.v., PE anti-mouse IgG1 detection (isotype matched negative control).
Assay [5] has the same target. Briefly: flow cytometry of rat blood cells 3 h after 0.5 mg/kg i.v., PE anti-mouse IgG1 detection (isotype matched negative control).
For assay [6] the target is unchanged. Nature of the assay: flow cytometry of rat lymph node cells 3 h after 0.5 mg/kg i.v., PE anti-mouse IgG1 detection (isotype matched negative control).
Assay [7] addresses T2, human CD5 antigen (human, UniProt P06127 25-495).
T2 construct: whole, on cells; also called gp67; CD5 found on Molt-4M
T2 sequence (looked up): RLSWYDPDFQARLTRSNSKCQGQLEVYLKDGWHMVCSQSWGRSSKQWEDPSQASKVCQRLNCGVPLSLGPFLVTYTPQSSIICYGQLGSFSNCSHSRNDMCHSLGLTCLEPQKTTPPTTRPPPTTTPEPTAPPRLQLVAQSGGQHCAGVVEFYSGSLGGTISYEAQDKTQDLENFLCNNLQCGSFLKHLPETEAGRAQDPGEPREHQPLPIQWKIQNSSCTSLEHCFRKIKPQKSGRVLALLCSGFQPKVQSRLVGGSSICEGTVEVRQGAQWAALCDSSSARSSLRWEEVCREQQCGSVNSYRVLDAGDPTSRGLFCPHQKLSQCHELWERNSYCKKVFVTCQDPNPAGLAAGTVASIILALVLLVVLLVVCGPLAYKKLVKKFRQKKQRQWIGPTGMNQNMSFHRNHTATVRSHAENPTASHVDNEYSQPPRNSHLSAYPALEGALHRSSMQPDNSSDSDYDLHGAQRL
Briefly: competitive binding on Molt4-M cells, single point at 0.54 nM, competitor 125I-cH65 IgG. On the procedure: Molt4-M cells, which express CD5 on their surface, were plated into 96 well V-bottom plates at a density of 3×10⁵ cells per well and pelleted by centrifugation. The medium was decanted, and 100 μl of purified cH65 IgG at final concentrations from 200 nM to 0.0017 nM (diluted in 3-fold steps) in “BHD” [DMEM (Dulbecco's Modified Eagle's Medium)+1% BSA+10 mM Hepes, pH 7.2] (BHD) was added to each well, followed by 100 μl of ¹²⁵I-cH65 IgG (final concentration=0.1 nM) in BHD. For single point determinations, 50-100 μl of the Centricon® concentrates were added to the wells as follows: hH65 (final concentration=0.54 nM), cH65 (final concentration=0.22 nM), CM+purified cH65 IgG (final concentration=30 nM) and CM alone. These were followed by addition of ¹²⁵I-cH65 IgG (final concentration=0.1 nM). Binding was allowed to proceed for 5 hours at 4° C. At the end of 5 hours, binding was terminated by three washes with ice cold BHD using centrifugation to pellet cells. Radioactivity was determined by solubilizing bound ¹²⁵I-cH65 IgG with 1N NaOH and counting in a Beckman Gamma 8000 (Beckman Instruments, Fullerton, Calif.).

With OX19 MoAb (antibody), the % of CD4 cells that are also positive for mouse IgG1 in assay [1] amounted to 84.8%; in assay [2], 96.2%; in assay [3], 96.2%. Also, the % of CD8 cells that are also positive for mouse IgG1 in assay [1] worked out at 73.6%; in assay [2] it was 96.8%; in assay [3], 70.2%.

B1: MoAb H65 (murine monoclonal antibody produced by cell line XMMLY-H65) (antibody, V domains shown)
VH: QIQLVQSGPELKKPGETVKISCKASGYTFTNYGMNWVKQAPGKGLRWMGWINTHTGEPTYADDFKGRFAFSLETSASTAYLQINNLKNEDTATYFCTRRGYDWYFDVWGAGTTVTVSS
VL: DIKMTQSPSSMYASLGERVTITCKASQDINSYLSWFQQKPGKSPKTLIYRANRLVDGVPSRFSGSGSGQDYSLTISSLDYEDMGIYYCQQYDESPWTFGGGTKLEIK
For the molecule B1, the % of CD4 cells that are also positive for mouse IgG1 in assay [4] turned out to be 14.8%; in assay [5], 6.7%; in assay [6] it was 4.2%. Also, the results for the % of CD8 cells that are also positive for mouse IgG1 in assay [4], in assay [5] and in assay [6] were 20.6%, 5.7% and 6.5%, respectively.

B2: humanized H65 IgG (low-risk modified H65) (antibody, V domains shown)
VH: QIQLVQSGPGLKKPGGSVRISCAASGYTFTNYGMNWVKQAPGKGLRWMGWINTHTGEPTYADDFKGRFTFSLDTSKSTAYLQINSLRAEDTATYFCTRRGYDWYFDVWGQGTTVTVSS
VL: B1 VL with K3Q, Y12S, E17D, K24R, Q69T, S72T, D79Q, M83F
notes: Whole IgG transiently expressed in CHO-K1 from vectors pING4612 (heavy) and pING4614 (light); Human constant regions; also called hH65; H65 antibody modified according to the methods of the present invention
With B2, the binding result in assay [7] is reported as “binds”.
